{"source": "paper PMC9482650", "about": "“Quantitative fragmentomics allow affinity mapping of interactomes” (Nature Communications, 2022)", "binders": {"B1": {"name": "GRID2, O43424 (peptide)", "chain": "GNDPDRGTSI"}, "B2": {"name": "JAM2, P57087 (peptide)", "chain": "DFKHTKSFII"}}, "data": [{"target": "T1, APBA1_1, Q02410", "T1 sequence (Q02410 651-752, limits assumed, looked up)": "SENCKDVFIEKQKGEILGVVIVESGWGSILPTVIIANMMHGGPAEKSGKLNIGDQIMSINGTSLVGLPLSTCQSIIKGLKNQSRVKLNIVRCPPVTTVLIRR", "test": "holdup assay", "design": "key: below the threshold = too weak to quantify, mostly under pKd 3.1 to 4", "conditions": "plain residues with an end cap or a label only (N-terminal biotin on a linker: ado-ado)", "values": [{"binder": "B1", "pKd": "below the threshold"}, {"binder": "B2", "pKd": "below the threshold"}]}, {"target": "T2, APBA1_2, Q02410", "T2 sequence (Q02410 742-832, limits assumed, looked up)": "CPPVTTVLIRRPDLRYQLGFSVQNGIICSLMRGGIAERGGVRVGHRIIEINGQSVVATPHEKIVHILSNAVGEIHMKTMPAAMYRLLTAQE", "test": "holdup assay", "design": "key: below the threshold = too weak to quantify, mostly under pKd 3.1 to 4", "conditions": "plain residues with an end cap or a label only (N-terminal biotin on a linker: ado-ado)", "values": [{"binder": "B1", "pKd": 3.65}, {"binder": "B2", "pKd": "below the threshold"}]}, {"target": "T3, ARHGAP21, Q5T5U3", "T3 sequence (Q5T5U3 45-169, limits assumed, looked up)": "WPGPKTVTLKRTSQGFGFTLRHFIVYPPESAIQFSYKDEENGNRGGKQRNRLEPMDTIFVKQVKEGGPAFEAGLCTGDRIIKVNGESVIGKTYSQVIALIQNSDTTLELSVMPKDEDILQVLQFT", "test": "holdup assay", "design": "key: below the threshold = too weak to quantify, mostly under pKd 3.1 to 4", "conditions": "plain residues with an end cap or a label only (N-terminal biotin on a linker: ado-ado)", "values": [{"binder": "B1", "pKd": "below the threshold"}, {"binder": "B2", "pKd": "below the threshold"}]}, {"target": "T4, ARHGEF11, O15085", "T4 sequence (O15085 42-136, limits assumed, looked up)": "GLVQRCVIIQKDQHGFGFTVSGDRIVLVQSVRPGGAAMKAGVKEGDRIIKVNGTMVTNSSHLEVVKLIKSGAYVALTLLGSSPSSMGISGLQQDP", "test": "holdup assay", "design": "key: below the threshold = too weak to quantify, mostly under pKd 3.1 to 4", "conditions": "plain residues with an end cap or a label only (N-terminal biotin on a linker: ado-ado)", "values": [{"binder": "B1", "pKd": "below the threshold"}, {"binder": "B2", "pKd": "below the threshold"}]}, {"target": "DLG2_3, Q15700", "test": "holdup assay", "design": "key: below the threshold = too weak to quantify, mostly under pKd 3.1 to 4", "conditions": "plain residues with an end cap or a label only (N-terminal biotin on a linker: ado-ado)", "values": [{"binder": "B1", "pKd": 3.69}, {"binder": "B2", "pKd": 3.75}]}, {"target": "DLG4_1, P78352", "sequence (P78352 62-152)": "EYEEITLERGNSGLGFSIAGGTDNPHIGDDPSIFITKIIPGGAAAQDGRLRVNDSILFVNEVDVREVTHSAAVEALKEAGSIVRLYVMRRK", "test": "holdup assay", "design": "key: below the threshold = too weak to quantify, mostly under pKd 3.1 to 4", "conditions": "plain residues with an end cap or a label only (N-terminal biotin on a linker: ado-ado)", "values": [{"binder": "B1", "pKd": "below the threshold"}, {"binder": "B2", "pKd": "below the threshold"}]}, {"target": "FRMPD2_1, Q68DX3", "sequence (Q68DX3 770-861)": "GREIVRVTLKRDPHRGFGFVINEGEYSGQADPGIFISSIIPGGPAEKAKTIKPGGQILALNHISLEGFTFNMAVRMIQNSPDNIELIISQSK", "test": "holdup assay", "design": "key: below the threshold = too weak to quantify, mostly under pKd 3.1 to 4", "conditions": "plain residues with an end cap or a label only (N-terminal biotin on a linker: ado-ado)", "values": [{"binder": "B1", "pKd": "below the threshold"}, {"binder": "B2", "pKd": 3.55}]}, {"target": "FRMPD2_2, Q68DX3", "sequence (Q68DX3 944-1038)": "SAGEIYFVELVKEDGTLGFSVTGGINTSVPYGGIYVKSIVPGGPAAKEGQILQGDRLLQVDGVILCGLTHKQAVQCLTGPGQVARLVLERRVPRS", "test": "holdup assay", "design": "key: below the threshold = too weak to quantify, mostly under pKd 3.1 to 4", "conditions": "plain residues with an end cap or a label only (N-terminal biotin on a linker: ado-ado)", "values": [{"binder": "B1", "pKd": "below the threshold"}, {"binder": "B2", "pKd": "below the threshold"}]}, {"target": "GRID2IP_1, A4D2P6", "sequence (A4D2P6 1-87)": "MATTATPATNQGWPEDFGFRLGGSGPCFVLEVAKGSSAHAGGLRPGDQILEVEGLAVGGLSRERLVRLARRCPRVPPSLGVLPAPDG", "test": "holdup assay", "design": "key: below the threshold = too weak to quantify, mostly under pKd 3.1 to 4", "conditions": "plain residues with an end cap or a label only (N-terminal biotin on a linker: ado-ado)", "values": [{"binder": "B1", "pKd": "below the threshold"}, {"binder": "B2", "pKd": "below the threshold"}]}, {"target": "Inadl_2, Q8NI35", "sequence (Q8NI35 238-335)": "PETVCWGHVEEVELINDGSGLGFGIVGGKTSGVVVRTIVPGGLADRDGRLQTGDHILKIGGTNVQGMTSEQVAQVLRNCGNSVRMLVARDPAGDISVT", "test": "holdup assay", "design": "key: below the threshold = too weak to quantify, mostly under pKd 3.1 to 4", "conditions": "plain residues with an end cap or a label only (N-terminal biotin on a linker: ado-ado)", "values": [{"binder": "B1", "pKd": "below the threshold"}, {"binder": "B2", "pKd": "below the threshold"}]}, {"target": "Inadl_4, Q8NI35", "sequence (Q8NI35 547-651)": "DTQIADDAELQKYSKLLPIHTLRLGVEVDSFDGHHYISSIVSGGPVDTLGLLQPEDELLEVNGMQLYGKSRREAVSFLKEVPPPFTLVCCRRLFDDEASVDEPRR", "test": "holdup assay", "design": "key: below the threshold = too weak to quantify, mostly under pKd 3.1 to 4", "conditions": "plain residues with an end cap or a label only (N-terminal biotin on a linker: ado-ado)", "values": [{"binder": "B1", "pKd": "below the threshold"}, {"binder": "B2", "pKd": "below the threshold"}]}, {"target": "Inadl_8, Q8NI35", "sequence (Q8NI35 1425-1530)": "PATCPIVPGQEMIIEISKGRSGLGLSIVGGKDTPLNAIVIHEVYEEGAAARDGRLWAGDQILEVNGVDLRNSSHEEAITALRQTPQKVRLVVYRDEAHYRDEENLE", "test": "holdup assay", "design": "key: below the threshold = too weak to quantify, mostly under pKd 3.1 to 4", "conditions": "plain residues with an end cap or a label only (N-terminal biotin on a linker: ado-ado)", "values": [{"binder": "B1", "pKd": "below the threshold"}, {"binder": "B2", "pKd": "below the threshold"}]}, {"target": "LDB3, O75112", "sequence (O75112 1-94)": "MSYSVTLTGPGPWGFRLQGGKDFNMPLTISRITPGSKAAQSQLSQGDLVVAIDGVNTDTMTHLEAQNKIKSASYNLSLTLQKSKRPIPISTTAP", "test": "holdup assay", "design": "key: below the threshold = too weak to quantify, mostly under pKd 3.1 to 4", "conditions": "plain residues with an end cap or a label only (N-terminal biotin on a linker: ado-ado)", "values": [{"binder": "B1", "pKd": "below the threshold"}, {"binder": "B2", "pKd": "below the threshold"}]}, {"target": "T5, LIN7C, Q9NUP9", "T5 sequence (Q9NUP9 88-185, limits assumed, looked up)": "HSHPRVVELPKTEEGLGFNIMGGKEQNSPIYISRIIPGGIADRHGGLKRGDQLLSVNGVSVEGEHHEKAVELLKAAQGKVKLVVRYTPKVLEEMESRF", "test": "holdup assay", "design": "key: below the threshold = too weak to quantify, mostly under pKd 3.1 to 4", "conditions": "plain residues with an end cap or a label only (N-terminal biotin on a linker: ado-ado)", "values": [{"binder": "B1", "pKd": "below the threshold"}, {"binder": "B2", "pKd": "below the threshold"}]}, {"target": "T6, LNX2_3, Q8N448", "T6 sequence (Q8N448 463-564, limits assumed, looked up)": "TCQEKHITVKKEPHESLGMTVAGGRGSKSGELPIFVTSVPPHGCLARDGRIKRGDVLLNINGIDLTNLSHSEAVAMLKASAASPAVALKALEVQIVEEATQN", "test": "holdup assay", "design": "key: below the threshold = too weak to quantify, mostly under pKd 3.1 to 4", "conditions": "plain residues with an end cap or a label only (N-terminal biotin on a linker: ado-ado)", "values": [{"binder": "B1", "pKd": "below the threshold"}, {"binder": "B2", "pKd": "below the threshold"}]}, {"target": "T7, LRRC7, Q96NW7", "T7 sequence (Q96NW7 1440-1537, limits assumed, looked up)": "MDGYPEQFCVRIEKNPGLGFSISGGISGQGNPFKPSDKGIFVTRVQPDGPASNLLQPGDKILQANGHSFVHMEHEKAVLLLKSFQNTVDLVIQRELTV", "test": "holdup assay", "design": "key: below the threshold = too weak to quantify, mostly under pKd 3.1 to 4", "conditions": "plain residues with an end cap or a label only (N-terminal biotin on a linker: ado-ado)", "values": [{"binder": "B1", "pKd": "below the threshold"}, {"binder": "B2", "pKd": "below the threshold"}]}, {"target": "MAGI2_3, Q86UL8", "sequence (Q86UL8 600-682)": "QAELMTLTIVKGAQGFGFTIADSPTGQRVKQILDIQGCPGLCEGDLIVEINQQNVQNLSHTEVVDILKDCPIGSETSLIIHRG", "test": "holdup assay", "design": "key: below the threshold = too weak to quantify, mostly under pKd 3.1 to 4", "conditions": "plain residues with an end cap or a label only (N-terminal biotin on a linker: ado-ado)", "values": [{"binder": "B1", "pKd": "below the threshold"}, {"binder": "B2", "pKd": "below the threshold"}]}, {"target": "MAGI2_4, Q86UL8", "sequence (Q86UL8 772-865)": "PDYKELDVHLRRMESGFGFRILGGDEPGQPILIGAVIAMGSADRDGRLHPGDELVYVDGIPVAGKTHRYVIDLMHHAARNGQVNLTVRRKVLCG", "test": "holdup assay", "design": "key: below the threshold = too weak to quantify, mostly under pKd 3.1 to 4", "conditions": "plain residues with an end cap or a label only (N-terminal biotin on a linker: ado-ado)", "values": [{"binder": "B1", "pKd": "below the threshold"}, {"binder": "B2", "pKd": "below the threshold"}]}, {"target": "MAGI3_2, Q5TCQ9", "sequence (Q5TCQ9 398-503)": "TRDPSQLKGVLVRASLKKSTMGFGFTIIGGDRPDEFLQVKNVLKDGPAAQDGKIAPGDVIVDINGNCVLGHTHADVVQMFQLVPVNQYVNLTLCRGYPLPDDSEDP", "test": "holdup assay", "design": "key: below the threshold = too weak to quantify, mostly under pKd 3.1 to 4", "conditions": "plain residues with an end cap or a label only (N-terminal biotin on a linker: ado-ado)", "values": [{"binder": "B1", "pKd": "below the threshold"}, {"binder": "B2", "pKd": "below the threshold"}]}, {"target": "NHERF4_1, Q86UT5-2", "sequence (Q86UT5 other isoform, or with tags, fused parts or gaps)": "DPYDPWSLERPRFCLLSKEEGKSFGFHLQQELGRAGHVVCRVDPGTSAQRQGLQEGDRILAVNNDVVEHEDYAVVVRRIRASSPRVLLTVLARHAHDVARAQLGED", "test": "holdup assay", "design": "key: below the threshold = too weak to quantify, mostly under pKd 3.1 to 4", "conditions": "plain residues with an end cap or a label only (N-terminal biotin on a linker: ado-ado)", "values": [{"binder": "B1", "pKd": "below the threshold"}, {"binder": "B2", "pKd": "below the threshold"}]}, {"target": "NHERF4_2, Q86UT5", "sequence (Q86UT5 220-308)": "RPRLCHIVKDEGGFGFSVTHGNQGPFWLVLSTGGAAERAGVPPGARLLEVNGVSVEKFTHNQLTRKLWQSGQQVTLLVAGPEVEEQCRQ", "test": "holdup assay", "design": "key: below the threshold = too weak to quantify, mostly under pKd 3.1 to 4", "conditions": "plain residues with an end cap or a label only (N-terminal biotin on a linker: ado-ado)", "values": [{"binder": "B1", "pKd": "below the threshold"}, {"binder": "B2", "pKd": "below the threshold"}]}, {"target": "PARD3_3, Q8TEW0", "sequence (Q8TEW0 582-685)": "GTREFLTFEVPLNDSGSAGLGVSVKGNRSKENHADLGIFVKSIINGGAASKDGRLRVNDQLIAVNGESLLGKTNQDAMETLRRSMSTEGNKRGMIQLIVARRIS", "test": "holdup assay", "design": "key: below the threshold = too weak to quantify, mostly under pKd 3.1 to 4", "conditions": "plain residues with an end cap or a label only (N-terminal biotin on a linker: ado-ado)", "values": [{"binder": "B1", "pKd": "below the threshold"}, {"binder": "B2", "pKd": 4.42}]}, {"target": "PDLIM1, O00151", "sequence (O00151 1-87)": "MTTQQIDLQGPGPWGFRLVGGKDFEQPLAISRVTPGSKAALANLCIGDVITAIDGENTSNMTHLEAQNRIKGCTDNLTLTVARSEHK", "test": "holdup assay", "design": "key: below the threshold = too weak to quantify, mostly under pKd 3.1 to 4", "conditions": "plain residues with an end cap or a label only (N-terminal biotin on a linker: ado-ado)", "values": [{"binder": "B1", "pKd": "below the threshold"}, {"binder": "B2", "pKd": "below the threshold"}]}, {"target": "PTPN3, P26045", "sequence (P26045 505-587)": "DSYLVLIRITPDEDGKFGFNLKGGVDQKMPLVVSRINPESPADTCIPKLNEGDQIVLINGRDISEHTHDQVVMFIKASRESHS", "test": "holdup assay", "design": "key: below the threshold = too weak to quantify, mostly under pKd 3.1 to 4", "conditions": "plain residues with an end cap or a label only (N-terminal biotin on a linker: ado-ado)", "values": [{"binder": "B1", "pKd": 4.52}, {"binder": "B2", "pKd": 3.81}]}, {"target": "T8, RAPGEF6, Q8TEU7", "T8 sequence (Q8TEU7 525-625, limits assumed, looked up)": "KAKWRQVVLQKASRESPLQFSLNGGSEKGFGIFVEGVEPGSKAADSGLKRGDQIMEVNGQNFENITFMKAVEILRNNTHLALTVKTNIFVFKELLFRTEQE", "test": "holdup assay", "design": "key: below the threshold = too weak to quantify, mostly under pKd 3.1 to 4", "conditions": "plain residues with an end cap or a label only (N-terminal biotin on a linker: ado-ado)", "values": [{"binder": "B1", "pKd": "below the threshold"}, {"binder": "B2", "pKd": "below the threshold"}]}, {"target": "SCRIB_2, Q14160", "sequence (Q14160 857-960)": "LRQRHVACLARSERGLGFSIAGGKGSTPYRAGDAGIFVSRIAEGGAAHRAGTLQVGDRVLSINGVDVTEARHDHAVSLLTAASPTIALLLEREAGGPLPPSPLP", "test": "holdup assay", "design": "key: below the threshold = too weak to quantify, mostly under pKd 3.1 to 4", "conditions": "plain residues with an end cap or a label only (N-terminal biotin on a linker: ado-ado)", "values": [{"binder": "B1", "pKd": "below the threshold"}, {"binder": "B2", "pKd": "below the threshold"}]}, {"target": "T9, SHANK1, Q9Y566", "T9 sequence (Q9Y566 658-767, limits assumed, looked up)": "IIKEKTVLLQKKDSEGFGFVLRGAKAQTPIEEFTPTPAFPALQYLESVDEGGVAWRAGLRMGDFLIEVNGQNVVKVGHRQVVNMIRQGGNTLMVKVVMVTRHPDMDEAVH", "test": "holdup assay", "design": "key: below the threshold = too weak to quantify, mostly under pKd 3.1 to 4", "conditions": "plain residues with an end cap or a label only (N-terminal biotin on a linker: ado-ado)", "values": [{"binder": "B1", "pKd": 3.54}, {"binder": "B2", "pKd": "below the threshold"}]}, {"target": "T10, TJP3_3, O95049", "T10 sequence (O95049 375-456, limits assumed, looked up)": "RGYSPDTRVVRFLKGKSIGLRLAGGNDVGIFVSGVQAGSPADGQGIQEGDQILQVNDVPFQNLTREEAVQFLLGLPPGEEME", "test": "holdup assay", "design": "key: below the threshold = too weak to quantify, mostly under pKd 3.1 to 4", "conditions": "plain residues with an end cap or a label only (N-terminal biotin on a linker: ado-ado)", "values": [{"binder": "B1", "pKd": "below the threshold"}, {"binder": "B2", "pKd": "below the threshold"}]}]}
